To fix the notation:
B1: SEQ ID NO: 227 (peptide)
peptide: H[Aib]EGTFTSDLSVLLEGAALQRFIQWLV-NH2
modifications: N-terminus assumed
SMILES: CC[C@H](C)[C@H](NC(=O)[C@H](Cc1ccccc1)NC(=O)[C@H](CCCNC(=N)N)NC(=O)[C@H](CCC(N)=O)NC(=O)[C@H](CC(C)C)NC(=O)[C@H](C)NC(=O)[C@H](C)NC(=O)CNC(=O)[C@H](CCC(=O)O)NC(=O)[C@H](CC(C)C)NC(=O)[C@H](CC(C)C)NC(=O)[C@@H](NC(=O)[C@H](CO)NC(=O)[C@H](CC(C)C)NC(=O)[C@H](CC(=O)O)NC(=O)[C@H](CO)NC(=O)[C@@H](NC(=O)[C@H](Cc1ccccc1)NC(=O)[C@@H](NC(=O)CNC(=O)[C@H](CCC(=O)O)NC(=O)C(C)(C)NC(=O)[C@@H](N)Cc1c[nH]cn1)[C@@H](C)O)[C@@H](C)O)C(C)C)C(=O)N[C@@H](CCC(N)=O)C(=O)N[C@@H](Cc1c[nH]c2ccccc12)C(=O)N[C@@H](CC(C)C)C(=O)N[C@H](C(N)=O)C(C)C
B2: SEQ ID NO: 228 (peptide)
peptide: H[Aib]EGTFTSDLSWLLEGAALQRFIQWLV-NH2
modifications: N-terminus assumed
SMILES: CC[C@H](C)[C@H](NC(=O)[C@H](Cc1ccccc1)NC(=O)[C@H](CCCNC(=N)N)NC(=O)[C@H](CCC(N)=O)NC(=O)[C@H](CC(C)C)NC(=O)[C@H](C)NC(=O)[C@H](C)NC(=O)CNC(=O)[C@H](CCC(=O)O)NC(=O)[C@H](CC(C)C)NC(=O)[C@H](CC(C)C)NC(=O)[C@H](Cc1c[nH]c2ccccc12)NC(=O)[C@H](CO)NC(=O)[C@H](CC(C)C)NC(=O)[C@H](CC(=O)O)NC(=O)[C@H](CO)NC(=O)[C@@H](NC(=O)[C@H](Cc1ccccc1)NC(=O)[C@@H](NC(=O)CNC(=O)[C@H](CCC(=O)O)NC(=O)C(C)(C)NC(=O)[C@@H](N)Cc1c[nH]cn1)[C@@H](C)O)[C@@H](C)O)C(=O)N[C@@H](CCC(N)=O)C(=O)N[C@@H](Cc1c[nH]c2ccccc12)C(=O)N[C@@H](CC(C)C)C(=O)N[C@H](C(N)=O)C(C)C
B3: SEQ ID NO: 229 (peptide)
peptide: H[Aib]EGTFTSDLSYLLEGAALQRFIQWLV-NH2
modifications: N-terminus assumed
SMILES: CC[C@H](C)[C@H](NC(=O)[C@H](Cc1ccccc1)NC(=O)[C@H](CCCNC(=N)N)NC(=O)[C@H](CCC(N)=O)NC(=O)[C@H](CC(C)C)NC(=O)[C@H](C)NC(=O)[C@H](C)NC(=O)CNC(=O)[C@H](CCC(=O)O)NC(=O)[C@H](CC(C)C)NC(=O)[C@H](CC(C)C)NC(=O)[C@H](Cc1ccc(O)cc1)NC(=O)[C@H](CO)NC(=O)[C@H](CC(C)C)NC(=O)[C@H](CC(=O)O)NC(=O)[C@H](CO)NC(=O)[C@@H](NC(=O)[C@H](Cc1ccccc1)NC(=O)[C@@H](NC(=O)CNC(=O)[C@H](CCC(=O)O)NC(=O)C(C)(C)NC(=O)[C@@H](N)Cc1c[nH]cn1)[C@@H](C)O)[C@@H](C)O)C(=O)N[C@@H](CCC(N)=O)C(=O)N[C@@H](Cc1c[nH]c2ccccc12)C(=O)N[C@@H](CC(C)C)C(=O)N[C@H](C(N)=O)C(C)C
B4: SEQ ID NO: 224 (peptide)
peptide: H[Aib]EGTFTSDLSELLEGAALQRFIQWLV-NH2
modifications: N-terminus assumed
SMILES: CC[C@H](C)[C@H](NC(=O)[C@H](Cc1ccccc1)NC(=O)[C@H](CCCNC(=N)N)NC(=O)[C@H](CCC(N)=O)NC(=O)[C@H](CC(C)C)NC(=O)[C@H](C)NC(=O)[C@H](C)NC(=O)CNC(=O)[C@H](CCC(=O)O)NC(=O)[C@H](CC(C)C)NC(=O)[C@H](CC(C)C)NC(=O)[C@H](CCC(=O)O)NC(=O)[C@H](CO)NC(=O)[C@H](CC(C)C)NC(=O)[C@H](CC(=O)O)NC(=O)[C@H](CO)NC(=O)[C@@H](NC(=O)[C@H](Cc1ccccc1)NC(=O)[C@@H](NC(=O)CNC(=O)[C@H](CCC(=O)O)NC(=O)C(C)(C)NC(=O)[C@@H](N)Cc1c[nH]cn1)[C@@H](C)O)[C@@H](C)O)C(=O)N[C@@H](CCC(N)=O)C(=O)N[C@@H](Cc1c[nH]c2ccccc12)C(=O)N[C@@H](CC(C)C)C(=O)N[C@H](C(N)=O)C(C)C
B5: SEQ ID NO: 226 (peptide)
peptide: H[Aib]EGTFTSDLSGLLEGAALQRFIQWLV-NH2
modifications: N-terminus assumed
SMILES: CC[C@H](C)[C@H](NC(=O)[C@H](Cc1ccccc1)NC(=O)[C@H](CCCNC(=N)N)NC(=O)[C@H](CCC(N)=O)NC(=O)[C@H](CC(C)C)NC(=O)[C@H](C)NC(=O)[C@H](C)NC(=O)CNC(=O)[C@H](CCC(=O)O)NC(=O)[C@H](CC(C)C)NC(=O)[C@H](CC(C)C)NC(=O)CNC(=O)[C@H](CO)NC(=O)[C@H](CC(C)C)NC(=O)[C@H](CC(=O)O)NC(=O)[C@H](CO)NC(=O)[C@@H](NC(=O)[C@H](Cc1ccccc1)NC(=O)[C@@H](NC(=O)CNC(=O)[C@H](CCC(=O)O)NC(=O)C(C)(C)NC(=O)[C@@H](N)Cc1c[nH]cn1)[C@@H](C)O)[C@@H](C)O)C(=O)N[C@@H](CCC(N)=O)C(=O)N[C@@H](Cc1c[nH]c2ccccc12)C(=O)N[C@@H](CC(C)C)C(=O)N[C@H](C(N)=O)C(C)C
B6: SEQ ID NO: 225 (peptide)
peptide: H[Aib]EGTFTSDLSFLLEGAALQRFIQWLV-NH2
modifications: N-terminus assumed
SMILES: CC[C@H](C)[C@H](NC(=O)[C@H](Cc1ccccc1)NC(=O)[C@H](CCCNC(=N)N)NC(=O)[C@H](CCC(N)=O)NC(=O)[C@H](CC(C)C)NC(=O)[C@H](C)NC(=O)[C@H](C)NC(=O)CNC(=O)[C@H](CCC(=O)O)NC(=O)[C@H](CC(C)C)NC(=O)[C@H](CC(C)C)NC(=O)[C@H](Cc1ccccc1)NC(=O)[C@H](CO)NC(=O)[C@H](CC(C)C)NC(=O)[C@H](CC(=O)O)NC(=O)[C@H](CO)NC(=O)[C@@H](NC(=O)[C@H](Cc1ccccc1)NC(=O)[C@@H](NC(=O)CNC(=O)[C@H](CCC(=O)O)NC(=O)C(C)(C)NC(=O)[C@@H](N)Cc1c[nH]cn1)[C@@H](C)O)[C@@H](C)O)C(=O)N[C@@H](CCC(N)=O)C(=O)N[C@@H](Cc1c[nH]c2ccccc12)C(=O)N[C@@H](CC(C)C)C(=O)N[C@H](C(N)=O)C(C)C
B7: SEQ ID NO: 223 (peptide)
peptide: H[Aib]EGTFTSDLS[Aib]LLEGAALQRFIQWLV-NH2
modifications: N-terminus assumed
SMILES: CC[C@H](C)[C@H](NC(=O)[C@H](Cc1ccccc1)NC(=O)[C@H](CCCNC(=N)N)NC(=O)[C@H](CCC(N)=O)NC(=O)[C@H](CC(C)C)NC(=O)[C@H](C)NC(=O)[C@H](C)NC(=O)CNC(=O)[C@H](CCC(=O)O)NC(=O)[C@H](CC(C)C)NC(=O)[C@H](CC(C)C)NC(=O)C(C)(C)NC(=O)[C@H](CO)NC(=O)[C@H](CC(C)C)NC(=O)[C@H](CC(=O)O)NC(=O)[C@H](CO)NC(=O)[C@@H](NC(=O)[C@H](Cc1ccccc1)NC(=O)[C@@H](NC(=O)CNC(=O)[C@H](CCC(=O)O)NC(=O)C(C)(C)NC(=O)[C@@H](N)Cc1c[nH]cn1)[C@@H](C)O)[C@@H](C)O)C(=O)N[C@@H](CCC(N)=O)C(=O)N[C@@H](Cc1c[nH]c2ccccc12)C(=O)N[C@@H](CC(C)C)C(=O)N[C@H](C(N)=O)C(C)C
B8: SEQ ID NO: 212 (peptide)
peptide: H[Aib]EGTFTSDVSRLLEEA[Aib]LQRFLEK([AEEA-AEEA-γGlu-C20 diacid])LVEAA-NH2
B9: SEQ ID NO: 213 (peptide)
peptide: H[Aib]EGTFTSDVSYLLEEA[Aib]LQRFLEK([AEEA-AEEA-γGlu-C20 diacid])LVEAA-NH2
modifications: N-terminus assumed
SMILES: CC(C)C[C@H](NC(=O)[C@H](CC(C)C)NC(=O)[C@H](Cc1ccc(O)cc1)NC(=O)[C@H](CO)NC(=O)[C@@H](NC(=O)[C@H](CC(=O)O)NC(=O)[C@H](CO)NC(=O)[C@@H](NC(=O)[C@H](Cc1ccccc1)NC(=O)[C@@H](NC(=O)CNC(=O)[C@H](CCC(=O)O)NC(=O)C(C)(C)NC(=O)[C@@H](N)Cc1c[nH]cn1)[C@@H](C)O)[C@@H](C)O)C(C)C)C(=O)N[C@@H](CCC(=O)O)C(=O)N[C@@H](CCC(=O)O)C(=O)N[C@@H](C)C(=O)NC(C)(C)C(=O)N[C@@H](CC(C)C)C(=O)N[C@@H](CCC(N)=O)C(=O)N[C@@H](CCCNC(=N)N)C(=O)N[C@@H](Cc1ccccc1)C(=O)N[C@@H](CC(C)C)C(=O)N[C@@H](CCC(=O)O)C(=O)N[C@@H](CCCCNC(=O)COCCOCCNC(=O)COCCOCCNC(=O)CC[C@H](NC(=O)CCCCCCCCCCCCCCCCCCC(=O)O)C(=O)O)C(=O)N[C@@H](CC(C)C)C(=O)N[C@H](C(=O)N[C@@H](CCC(=O)O)C(=O)N[C@@H](C)C(=O)N[C@@H](C)C(N)=O)C(C)C

The values below come from patent US20260201008A1, “SECRETIN-DERIVED GLP1R SELECTIVE AGONISTS” (GUBRA A/S, priority 2023, published 2026).

Numbered stars: 1 amine (or outer) side, 2 acyl side, 3 side chain; on linkers, the order of the positions; unused ones are H or OH. Square brackets hold non-standard residues; d marks the D form. Side chains are listed from the residue outwards. Ends that are not written are not given here. * marks the point of attachment. C20 diacid = O=C(O)CCCCCCCCCCCCCCCCCCC(=O)*; γGlu = O=C(O)[C@H](CCC(=O)[*:2])N[*:1]; AEEA = NCCOCCOCC(=O)O; Aib = CC(C)(N)C(=O)O

In one experiment the target is T1, human GLP-1 receptor (hGLP1R) (human, UniProt P43220 24-463). The experiment in a line: cell-based or functional assay.
Regarding B1, the “pEC50 hGLPR1” value was 10.5 -log M.

As for B2, the “pEC50 hGLPR1” value is 10.8 -log M.

For the molecule B3, the “pEC50 hGLPR1” value is 10.8 -log M.

In the case of B4, the “pEC50 hGLPR1” value is 10.9 -log M.

Regarding B5, the “pEC50 hGLPR1” value is 10.5 -log M.

In the case of B6, the “pEC50 hGLPR1” value was 10.6 -log M.

In the case of B7, the “pEC50 hGLPR1” value was 10.2 -log M.

A further experiment deals with T2, human secretin receptor (hSCTR) (human, UniProt P47872 23-440). The experiment in a line: cell-based or functional assay.
T2 sequence (P47872 23-440): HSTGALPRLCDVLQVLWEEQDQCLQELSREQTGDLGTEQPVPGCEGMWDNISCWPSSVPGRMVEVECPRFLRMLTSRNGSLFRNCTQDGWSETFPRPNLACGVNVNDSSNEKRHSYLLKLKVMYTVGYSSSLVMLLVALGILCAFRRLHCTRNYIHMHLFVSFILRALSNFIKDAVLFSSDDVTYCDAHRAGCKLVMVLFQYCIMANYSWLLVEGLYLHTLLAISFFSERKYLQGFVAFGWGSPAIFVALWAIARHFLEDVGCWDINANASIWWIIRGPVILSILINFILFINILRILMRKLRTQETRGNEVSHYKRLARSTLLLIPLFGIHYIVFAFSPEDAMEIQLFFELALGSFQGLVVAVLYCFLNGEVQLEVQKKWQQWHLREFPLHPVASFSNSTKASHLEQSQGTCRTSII
Consider B1, for which the “pEC50 hSCTR” value was 8.9 -log M.

For B2, the “pEC50 hSCTR” value was 9.1 -log M.

For B3, the “pEC50 hSCTR” value was 8 -log M.

For B4, the “pEC50 hSCTR” value was 8.8 -log M.

As for B5, the “pEC50 hSCTR” value is 8.3 -log M.

In the case of B6, the “pEC50 hSCTR” value is 8.1 -log M.

On to B7, for which the “pEC50 hSCTR” value is 8.3 -log M.

The target in another experiment is T1, human GLP-1 receptor (hGLP1R). The experiment in a line: cell-based or functional assay. This is another data set of the same source.
As to B8, the “PEC50 hGLPR1” value was 10.7 -log M.

Consider B9, for which the “PEC50 hGLPR1” value was 10.8 -log M.

The next experiment concerns the target T2, human secretin receptor (hSCTR). The experiment in a line: cell-based or functional assay. This is another data set of the same source.
B8: the “pEC50 hSCTR” value was 7.2 -log M.

Take B9: the “pEC50 hSCTR” value was 6 -log M.

In the next experiment the target is T1, human GLP-1 receptor (hGLP1R). The experiment can be described thus: cell-based or functional assay. This is another data set of the same source.
For the molecule B8, the “hGLPR1 EC50 nM (purified peptide)” value stood at 0.021 nM and the “hGLPR1 PEC50 (purified peptide)” value was 10.7 -log M.

On to B9, for which the “hGLPR1 EC50 nM (purified peptide)” value is 0.014 nM and the “hGLPR1 PEC50 (purified peptide)” value is 10.9 -log M.

The target in another experiment is T2, human secretin receptor (hSCTR). The experiment can be described thus: cell-based or functional assay. This is another data set of the same source.
B8: the “hSCTR EC50 nM (purified peptide)” value came to 60 nM and the “hSCTR pEC50 (purified peptide)” value is 7.2 -log M.

For B9, the “hSCTR EC50 nM (purified peptide)” value was 890 nM and the “hSCTR pEC50 (purified peptide)” value was 6.1 -log M.
